Values of other authors as cited in paper PMC11764136.

Target: amyloid-β oligomers Aβ (Homo sapiens) (UniProt P05067)

PrPC (from UniProt P04156)
Kd: 4 nM
